From patent US20260056186A1 (JIANGSU HENGRUI PHARMACEUTICALS, published 2026)
Read-outs that look alike come from different tables or passages of the source.

What was measured:
[1] = target: recombinant human BAFF (R&D cat: 7537-BF-025/CF) (human, UniProt Q9Y275 134-285); assay: cell-based or functional assay
[2] = target: T1, APRIL (Acro Biosystems, Cat: APL-H52D1) (UniProt O75888 115-250, limits assumed); assay: ELISA, APRIL coated at 1 ug/mL, anti-human Fc-HRP, OD450
T1 construct: also called ARPIL
T1 sequence (looked up): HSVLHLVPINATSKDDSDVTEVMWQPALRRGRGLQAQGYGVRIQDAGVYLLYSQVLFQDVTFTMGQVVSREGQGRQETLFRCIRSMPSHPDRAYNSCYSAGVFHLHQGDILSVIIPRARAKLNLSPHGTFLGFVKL
Protocol: (§1) The capabilities of TACI-BCMA fusion proteins (B575701, B575702, B575703, and B575704) to bind to BAFF and APRIL were assessed by ELISA as follows: BAFF (PeproTech, Cat: 310-13) or ARPIL (Acro Biosystems, Cat: APL-H52D1) was diluted to 1 μg/mL with PBS, and a 96-well plate (Costar, Cat: 3590) was coated with the dilution overnight at 4° C. The plate was washed with PBST and blocked with Blocking Buffer (PBST containing 1% BSA) at 37° C. for 1 h. The plate was tapped. The test antibodies were diluted with Blocking Buffer. Incubation was performed at 37° C. for 1.5 h. The plate was washed with PBST. An HRP-mouse anti-human Fc antibody (GenScript, Cat: A01854-200) was diluted with Blocking Buffer. Incubation was performed at 37° C. for 40 min. The plate was washed with PBST. 100 μL of TMB substrate solution (Biopanda, Cat: TMB-S-003) was added, and color development was performed at 37° C. for 3 min. 100 μL of ELISA stop solution (Solarbio, Cat: C1058) was added. OD450 was measured.
The capabilities of the 4 fusion proteins to bind to APRIL were all stronger than that of telitacicept, and their EC₅₀ values decreased to ¼ to ⅓ of that of telitacicept.

[3] = target: T2, BAFF (PeproTech, Cat: 310-13) (UniProt Q9Y275 134-285); assay: ELISA, plate coated with BAFF 1 ug/mL, HRP anti-human Fc, OD450
Protocol: as §1, with “BAFF” for “The capabilities of TACI-BCMA fusion proteins (B575701, B575702, B575703, and B575704) to bind to BAFF and APRIL were assessed by ELISA as follows: BAFF”, “310-13)” for “310-13) or ARPIL (Acro Biosystems, Cat: APL-H52D1)”, “plate” for “plate (Costar, Cat: 3590)”

[4] = target: T2, BAFF (PeproTech, Cat: 310-13); assay: as above; remark: listed apart in the source
Protocol: as §1, with “BAFF” for “The capabilities of TACI-BCMA fusion proteins (B575701, B575702, B575703, and B575704) to bind to BAFF and APRIL were assessed by ELISA as follows: BAFF”, “310-13)” for “310-13) or ARPIL (Acro Biosystems, Cat: APL-H52D1)”, “plate” for “plate (Costar, Cat: 3590)”

[5] = target: T3, BAFF (Sino biological, 10056-HNCH) (UniProt Q9Y275 134-285, biotinylated in the blocking ELISA (site not stated)); assay: competition ELISA: fusion protein pre-mixed with biotinylated BAFF, added to coated BAFF-R
T3 construct: also called BLyS
Protocol: The above TACI-Fc fusion proteins' function of blocking the binding of BAFF to BAFF-R was further assessed as follows: The receptor protein was diluted with a pH 7.4 PBS (BasalMedia, B320) buffer to 2 μg/mL, and the resulting dilution was added to a 96-well microplate (Corning, 3590) at 100 μL/well. The plate was incubated overnight at 4° C. After the liquid was discarded, 1% Casein blocking solution (Thermo, 37528) was added at 200 μL/well for blocking, and the plate was incubated at 37° C. for 2 h. After the blocking, the blocking solution was discarded, and the plate was washed 3 times with a PBST buffer (pH 7.4 PBS containing 0.1% tween-20) and set aside for later use. A biotinylated ligand protein at a fixed concentration was mixed with a serially diluted antibody or fusion protein, and the mixture was pre-incubated at 37° C. for 30 min and then added to the blocked microplate. The plate was incubated at 37° C. for 1.5 h. After the incubation, the plate was washed 3 times with PBST, and streptavidin-HRP (Invitrogen, 434323, diluted in a 1:4000 ratio) was added at 100 μL/well. The plate was incubated at 37° C. for 1 h. The supernatant was removed. […] The absorbance at 450 nm was measured using a microplate reader. Curves for the inhibition of the binding of the ligand to the receptor were fitted using software, and IC₅₀ values were calculated. […]

Flow cytometry proliferating B cell proportion (%), mean value, BAFF-induced, drug at 10 nM (IgG1: 40.15) [1]: 36%
Flow cytometry proliferating B cell proportion (%), mean value, BAFF-induced, drug at 100 nM (IgG1: 40.60) [1]: 30.7%
Flow cytometry proliferating B cell proportion (%), mean value, BAFF-induced, drug at 1000 nM (IgG1: 33.97) [1]: 24.3%
EC50 [2]: 711 pM
Emax [2]: 2.62
EC50 (read off the curve) [3]: ~400 pM
EC50 (read off the curve) [4]: ~200 pM
IC50 [5]: 27500 pM
B1: Telitacicept (RCT-18) (Fc fusion)
chain: SRVDQEERFPQGLWTGVAMRSCPEEQYWDPLLGTCMSCKTICNHQSQRTCAAFCRSLSCRKEQGKFYDHLLRDCISCASICGQHPKQCAYFCENKLRSPVNLPPELDKTHTCPPCPAPEAEGAPSVFLFPPKPKDTLMISRTPEVTCVVVDVSHEDPEVKFNWYVDGVEVHNAKTKPREEQYNSTYRVVSVLTVLHQDWLNGKEYKCKVSNKALPSSIEKTISKAKGQPREPQVYTLPPSRDELTKNQVSLTCLVKGFYPSDIAVEWESNGQPENNYKTTPPVLDSDGSFFLYSKLTVDKSRWQQGNVFSCSVMHEALHNHYTQKSLSLSPGK
notes: Positive control TACI-Fc; also called RC18
